Experimental data from patent publication US11827911B2, “Chimeric bacteriophage lysin with activity against Staphylococci bacteria” (priority 2008, dated 2023).

B1: AD 119: Twort lysin endopeptidase domain upstream of the lysostaphin CWT domain (protein)
chain: METLKQAESYIKSKVNTGTDFDGLYGYQCMDLAVDYIYHVTDGKIRMWGNAKDAINNSFGGTATVYKNYPAFRPKYGDVVVWTTGNFATYGHIAIVTNPDPYGDLQYVTVLEQNWNGNGIYKTELATIRTHDYTGITHFIRPNFATESSVKKKDTKKKPKPSNRDGLNKDKIVYDRTNINYNMVLQTPNTGWKTNKYGTLYKSESASFTPNTDIITRTTGPFRSMPQSGVLKAGQTIHYDEVMKQDGHVWVGYTGNSGQRIYLPVRTWNKSTNTLGVLWGTIK
modifications: Chimeric of Staphylococcus aureus bacteriophage Twort domain and Staphylococcus simulans metalloendopeptidase Lysostaphin CWT domain
B2: AD 105: PlyB with its C-terminal CWT domain replaced by the putative C-terminal domain of S. aureus phage Twort lysin (protein)
chain: MGYIVDMSKWNGSPDWDTAKGQLDLVIARVQDGSNYVDPVYKDYVAAMKARNIPFGSYAFCRFVSVEDAKVEARDFWNRGDKDSLFWVADVEVTTMSDMRAGTQAFIDELYRLGAKKVGLYVGHHKYEEFGAAQIKCDFTWIPRYGAKPAYPCDLWQYDEYGQVPGIGKCDLNRLNGDKSLDWFTGKGEEAVQWNVNNYGTYYKSESATFKCTARQGIVTRYTGPFTTCPQAGVLYYGQSVTYDTVCKQDGYVWISWTTNGGQDVWMPVRTWDKNTDIMGQLWGDIY
modifications: Cimeric of Bacillus-specific phage lysin PlyB catalytic domain and Staphylococcus aureus bacteriophage Twort domain
B3: AD 126: S. epidermidis autolysin amidase domain upstream of phiNM3 CWT domain (protein)
chain: MVSSQKTSSLPKYTPKVNSSINNYIRKKNMKAPRIEEDYTSYFPKYGYRNGVGRPEGIVVHDTANDNSTIDGEIAFMKRNYTNAFVHAFVDGNRIIETAPTDYLSWGAGPYGNQRFINVEIVHTHDYDSFARSMNNYADYAATQLQYYNLKPDSAENDGRGTVWTHAAISNFLGGTDHADPHQYLRSHNYSYAELYDLIYEKYLIKTKQVAPWGTTSTKPSQPSKPSGGTNNKLTVSANRGVAQIKPTNNGLYTTVYDSKGHKTDQVQKTLSVTKTATLGNNKFYLVEDYNSGKKYGWVKQGDVVYNTAKAPVKVNQTYNVKAGSTLYTVPWGTPKQVASKVSGTGNQTFKATKQQQIDKATYLYGTVNGKSGWISKYYLTTASKPSNPTKPSTNNQLTVTNNSGVAQINAKNSGLYTTVYDTKGKTTNQIQRTLSVTKAATLGDKKFYLVGDYNTGTNYGWVKQDEVIYNTAKSPVKINQTYNVKPGVKLHTVPWGTYNQVAGTVSGKGDQTFKATKQQQIDKATYLYGTVNGKSGWISKYYLLQGLMNKITNKVKPPAQKAVGKSASKITVGSKAPYNLKWSKGAYFNAKIDGLGATSATRYGDNRTNYRFDVGQAVYAPGTLIYVFEIIDGWCRIYWNNHNEWIWHERLIVKEVF
modifications: Chimeric of Staphylococcus epidermidis autolysin amidase domain and Staphylococcus aureus phage pniNM3 CWT domain
B4: AD 107: lysostaphin CWT domain downstream of PlyB-catalytic domain (protein)
chain: MGYIVDMSKWNGSPDWDTAKGQLDLVIARVQDGSNYVDPVYKDYVAAMKARNIPFGSYAFCRFVSVEDAKVEARDFWNRGDKDSLFWVADVEVTTMSDMRAGTQAFIDELYRLGAKKVGLYVGHHKYEEFGAAQIKCDFTWIPRYGAKPAYPCDLWQYDEYGQVPGIGKCDLNRLNGDKSLDWFTGKGEEAVQLQTPNTGWKTNKYGTLYKSESASFTPNTDIITRTTGPFRSMPQSGVLKAGQTIHYDEVMKQDGHVWVGYTGNSGQRIYLPVRTWNKSTNTLGVLWGTIK
modifications: Chimeric of Bacillus-specific phage lysin PlyB catalytic domain and Staphylococcus simulans metalloendopeptidase Lysostaphin CWT domain
B5: AD 112: S. epidermidis autolysin amidase domain upstream of the lysostaphin CWT domain (protein)
chain: MVSSQKTSSLPKYTPKVNSSINNYIRKKNMKAPRIEEDYTSYFPKYGYRNGVGRPEGIVVHDTANDNSTIDGEIAFMKRNYTNAFVHAFVDGNRIIETAPTDYLSWGAGPYGNQRFINVEIVHTHDYDSFARSMNNYADYAATQLQYYNLKPDSAENDGRGTVWTHAAISNFLGGTDHADPHQYLRSHNYSYAELYDLIYEKYLIKTKQVAPWGTTSTKPSQPSKPSGGTNNKLTVSANRGVAQIKPTNNGLYTTVYDSKGHKTDQVQKTLSVTKTATLGNNKFYLVEDYNSGKKYGWVKQGDVVYNTAKAPVKVNQTYNVKAGSTLYTVPWGTPKQVASKVSGTGNQTFKATKQQQIDKATYLYGTVNGKSGWISKYYLTTASKPSNPTKPSTNNQLTVAGQTIHYDEVMKQDGHTNNSGVAQINAKNSGLYTTVYDTKGKTTNQIQRTLSVTKAATLGDKKFYLVGDYNTGTNYGWVKQDEVIYNTAKSPVKINQTYNVKPGVKLHTVPWGTYNQVAGTVSGKGDQTFKATKQQQIDKATYLYGTVNGKSGWISKYYLLQTPNTGWKTNKYGTLYKSESASFTPNTDIITRTTGPFRSMPQSGVLKVWVGYTGNSGQRIYLPVRTWNKSTNTLGVLWGTIK
modifications: Chimeric of Staphylococcus epidermidis autolysin amidase domain and Staphylococcus simulans metalloendopeptidase Lysostaphin CWT domain

What was measured:
[1] = test system: VISA strain Mu50; experiment: Checkerboard broth-microdilution assay; assay type: cell-based, Staphylococcus aureus; conditions: Staphylococcus aureus, VISA
From the text: We used the checkerboard broth-microdilution assay to test the interaction of ClyS with vancomycin and with oxacillin. […] Isobolograms for ClyS with vancomycin and ClyS with oxacillin was plotted by transcribing the enzyme concentrations along the inhibitory line on the microtiter plate in an x/y plot.

[2] = Solubility of expressed lysins and chimeras
Experimental: In another embodiment, the lysin is a chimeric protein that comprises an endopeptidase domain of the S. aureus Twort lysin upstream of the phiNM3 CWT domain (SEQ ID NO:1). The chimeric polypeptide is preferably sufficiently soluble in phosphate buffered saline (PBS). Preferred levels of solubility in PBS for the chimeric lysins is at least about 1 mg/ml and more preferably at least about 3 mg/mL. in PBS. […] One example of such a lysin is provided in SEQ ID NO:2 (AD127), shown in FIG. 5A and consisting of the Twort lysin endopeptidase domain attached to the phiNM3 CWT domain (SEQ ID NO:1). The isolated polypeptide of SEQ ID NO:2 (AD 127) was constructed by engineering S. epidermidis autolysin amidase and Twort lysin endopeptidase domains upstream of phiNM3 CWT domain, respectively.
Traditionally, Bacillus-specific lysins are expressed at high levels and are soluble in E. coli. Therefore, our first attempt was to engineer a 16-amino acid peptide (4) that is conserved in several S. aureus-specific lysins (Lu J Z, Fujiwara T, Komatsuzawa H, Sugai M, Sakon J. 2006. Cell wall-targeting domain of glycylglycine endopeptidase distinguishes among peptidoglycan cross-bridges. (Lue et al. (2006) J. Biol. Chem. 281(1):549-58) The catalytic domain of the Bacillus-specific lysin PlyB was used to generate chimera AD 103 (FIG. 4) (SEQ ID NO: 13). The chimeras were tested for expression, solubility and activity. Then the entire C-terminal CWT domain of PlyB (6) was replaced by the putative C-terminal domain of S. aureus phage Twort lysin (8) to obtain AD 105 (SEQ ID NO: 14). […] Since the lysostaphin catalytic domain […] (10) in AD 112 was of bacterial origin, we attempted to engineer a phage-derived catalytic domain upstream of the lysostaphin CWT. For this, the endopeptidase domain in Twort lysin (14) was used to construct chimera AD 119 (SEQ ID NO:3).

[3] = test system: S. aureus; experiment: Lytic assays of chimeric lysins against S. aureus; assay type: cell-based, Staphylococcus aureus; conditions: for lytic/killing activity against S. aureus: qualitative
From the text: For this, the endopeptidase domain in Twort lysin (14) was used to construct chimera AD 119 (SEQ ID NO:3). […] To overcome low expression of AD 127 construct, the entire chimera gene was cloned into expression vector pJML6 to generate pAD 138.

Row | Molecule | MIC [1] [µg/mL] | solubility of the expressed protein [2] | lytic/killing activity against S. aureus [3] | effect on S. aureus cells when exposed [3]
1 | CN[C@H](CC(C)C)C(=O)N[C@H]1C(=O)N[C@@H](CC(N)=O)C(=O)N[C@H]2C(=O)N[C@H]3C(=O)N[C@H](C(=O)N[C@H](C(=O)O)c4cc(O)cc(O)c4-c4cc3ccc4O)[C@H](O)c3ccc(c(Cl)c3)Oc3cc2cc(c3O[C@@H]2O[C@H](CO)[C@@H](O)[C@H](O)[C@H]2O[C@H]2C[C@](C)(N)[C@H](O)[C@H](C)O2)Oc2ccc(cc2Cl)[C@H]1O [vancomycin, reference compound] | 8 |  |  | 
2 | B1 |  | soluble | did not show significant activity | 
3 | B2 |  |  | not active | 
4 | B3 |  |  | no expression or activity | 
5 | B4 |  | poor | no activity | 
6 | B5 |  | very soluble | no lytic activity | clumped
